Measurements published in article PMC10432803.

Columns and labels:
[1] = target: PaSOD-1 (Cys-less CuZnSOD from Paenibacillus lautus NBRC 15380, WP_246059278.1 without the predicted signal peptide) (Paenibacillus lautus NBRC 15380); assay: SEC-MALS; holo form (copper and zinc bound); 20 μM protein in MN buffer (50 mM Mops, 100 mM NaCl, pH 7.0); Cosmosil 5Diol-300-II column, miniDAWN TREOS
[2] = target: PaSOD-1 (Cys-less CuZnSOD from Paenibacillus lautus NBRC 15380, WP_246059278.1 without the predicted signal peptide) (Paenibacillus lautus NBRC 15380); assay: SEC-MALS; apo form; 20 μM protein in MN buffer (50 mM Mops, 100 mM NaCl, pH 7.0); Cosmosil 5Diol-300-II column, miniDAWN TREOS
[3] = target: PaSOD-2 (Cys-less CuZnSOD from Paenibacillus lautus NBRC 15380, WP_246059286.1 without the predicted signal peptide) (Paenibacillus lautus NBRC 15380); assay: SEC-MALS; holo form (copper and zinc bound); 20 μM protein in MN buffer (50 mM Mops, 100 mM NaCl, pH 7.0); Cosmosil 5Diol-300-II column, miniDAWN TREOS
[4] = target: PaSOD-2 (Cys-less CuZnSOD from Paenibacillus lautus NBRC 15380, WP_246059286.1 without the predicted signal peptide) (Paenibacillus lautus NBRC 15380); assay: SEC-MALS; apo form; 20 μM protein in MN buffer (50 mM Mops, 100 mM NaCl, pH 7.0); Cosmosil 5Diol-300-II column, miniDAWN TREOS

PaSOD-1 (Cys-less CuZnSOD from Paenibacillus lautus NBRC 15380, WP_246059278.1 without the predicted signal peptide) (enzyme)
stoichiometry N [1]: 2 | stoichiometry N [2]: 2

PaSOD-2 (Cys-less CuZnSOD from Paenibacillus lautus NBRC 15380, WP_246059286.1 without the predicted signal peptide) (enzyme)
stoichiometry N [3]: 2 | stoichiometry N [4]: 2
